Assay results published in the domain aggregation screens of Martell et al. (2025).

Experiment: soluble fraction after stress (log2 fold change); higher = more stays soluble; pooled small domains, quantitative proteomics
Conditions: stress: pH 4
Outline: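 Aggregation propensity is estimated from the fold change in each domain's soluble amount after acid stress. Pooled small-domain libraries were stressed at pH 4, and higher log2 values mean more stayed soluble.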
With “HMGKPVTMELLIPYSQGSLVHRISEAGEVAKTEYQNDGTYMQVTFTPSAKDHALMQEVASYRI” the “soluble fraction (log2)” value was 0.0901. For “HMGKSDDSLAAEKFIQHVRKNGELSYEQAYRMVHAYFPDFRNFEGMVSGAVKSGYLILIQKSTGLFLRAKE”, the “soluble fraction (log2)” value was -0.205. In the case of “HMGKTEMPFSTFLTEVDKGNIVSVDIRGSEISGNFRDGKGFKTYSPNYPNLVEKLSAKGVAITAGPR”, the “soluble fraction (log2)” value was 0.295. In the case of “HMGKTKFTEMSALELKAYAELNNNSMHWVYRMLYIGGGDVGFRKGMKELGYSGKFIWMTLERLKKS”, the “soluble fraction (log2)” value was -0.583. With “HMGKTTQEIEERSSTSTLTLTQTPKEIISVQGKKSDQSFFTNIQYTQNGKVIVPKQTGIYDTIKVVFTVSL” the “soluble fraction (log2)” value was -0.256. For “HMGKVLIYKPNMSVSDVAIRLGISNAEIIKRLMGLGVMTSINQTIDRDTIELVAMDLGFSIEN”, the “soluble fraction (log2)” value was -0.581. In the case of “HMGLAGVQSDVKVSFDGDLLVVTSDIARSFNLFAVDGRLIRSVNLIAGRNEIRGLERGFYLAEKQKIFV”, the “soluble fraction (log2)” value was -1.36. With “HMGLAWTVEGRTVLLGRTADRIELYNVGGGLVALARESDRISAPGVGLYVVRVVSDGQSVSQKIWIT” the “soluble fraction (log2)” value was -0.325. In the case of “HMGLDMSLEREQHRALREASQWYARLADEQVDSDAERAWRHWVAADEANQRAWQYIEAVSQRFDG”, the “soluble fraction (log2)” value was -0.829. In the case of “HMGLDNEGFERLRQKITRLLSEEALPVKELVDSFASKMRQEVLETLAFLQQEGVIEEKNGKLFLK”, the “soluble fraction (log2)” value was -0.283. With “HMGLIDNLTRIMEKKNISAYQLEKAGIVKQTTFTSWKKGTQPALDKIIKIMQYIEVTPNELFGY” the “soluble fraction (log2)” value was -0.456. For “HMGLKWVYYTNIEPDGNKINNQKLYDILKQKFVYPVIISRDELDSMELKDLTYDSYIDVEGRYFKPYNLD”, the “soluble fraction (log2)” value was -2.03. In the case of “HMGLNPSILVKLGNANIKTIDNLADLASDELKEILEDISITSKEADEIIMRARSSWFEEDDKKEDNI”, the “soluble fraction (log2)” value was 0.175. With “HMGLPAWVPQNYIDRVTAIYDYSADKDDELTFNEGSTIFVLKKNDDGWWEGVMDGVTGLFPGNYVEAT” the “soluble fraction (log2)” value was -1.63. For “HMGLQLTPVRRRVLEILLHEHRALGAYDILDKLRSEGLGSQPPVAYRALDFLVTHGFAHKIERLNAF”, the “soluble fraction (log2)” value was -0.0897. In the case of “HMGLQRLTVSPEDAGVRIDKYLAEQLPDITRSYLQKLLKDGSVQMNGKPVKASTKTAVGAVIALTIPEP”, the “soluble fraction (log2)” value was -0.157. In the case of “HMGLSAEAARMAIQDAGLSKEDFAQKLGIKKVERVVEWEAGTSKPTFVQAQKIANATNIPFGYLFLVNPPK”, the “soluble fraction (log2)” value was 0.0939. In the case of “HMGLTRRAQLEVADANLKRLYPGMHQSWVTAIAEYLHSSYWRYINSLEPEYAASIQRVYEQHIDAM”, the “soluble fraction (log2)” value was -0.0592. With “HMGLTYEQILTDVQRFVTQNHADTLSNEGNPEEARKLLKDYILQYVQNRSYHVDGQTTEELVDSLYED” the “soluble fraction (log2)” value was -1.13. For “HMGLVDSLEPLLRRVYEALPQRRSMTTERLAVAAGLDEESVKVALARLQLSAFVGVDERGWHRSL”, the “soluble fraction (log2)” value was -0.0455. In the case of “HMGLVLIDSYNDIGSAKLITNKIRNLGLIFEENENKINVFAGPFEKNDINLKIDFLIRNGYTNAQLY”, the “soluble fraction (log2)” value was -1.92. For “HMGLVQQSAQKSDDAAKLMAANNLNAAQSKYQLPDEAEKDFFTFAFERGYAVEDFVDAGLVDKIMADFSA”, the “soluble fraction (log2)” value was -0.44. With “HMGLVVIGTEAGYPAEKAGILAGDRIRKLNGAAVPDYDTFLTALAARKGEPSAIELERDGKTLEVTVSPL” the “soluble fraction (log2)” value was -0.21. With “HMGLWWTEAERELVKTTIEQLYKDTNIAEPVDSKNLRASIPALKAMRTGLSAENQARVDTLLGALQV” the “soluble fraction (log2)” value was -0.915. For “HMGMAGILDSARMASFIQEKLGYGGGQIRASVMGGHGDDMVPLPRYSTVAGVPLSDVLTQNEIDEMFAQ”, the “soluble fraction (log2)” value was -0.259. With “HMGMDALIGRRVFVSEEILPGDTGGRMAVDGDSWRAISVGTASNIPAGTEVRIRGHQSLVLEVEP” the “soluble fraction (log2)” value was -0.629. For “HMGMEENLLKERKQILMDIMKSKEYQPMKVKELAMVLNVPKEDREELRYVLNELMNEGKIVESKKGKFSIA”, the “soluble fraction (log2)” value was 0.0605. With “HMGMESFWNRVANLLNTSTVVELAQILDVKRSTLSSWIHSDRRPPMEVLLKITRLTGVDIHRLE” the “soluble fraction (log2)” value was -0.576. For “HMGMETQLSPKEKSIYTIIQNRPNIQSGEVSEKLAIPLPTVKRILSDLINKGLIEKQGSGRNVSYTI”, the “soluble fraction (log2)” value was 0.241. In the case of “HMGMFNENLRFLRQKRQMSQQAFASILGIPRTTYSEYEKGNTEPNLKLLIRLSELLDVSLDNLISDDLTHN”, the “soluble fraction (log2)” value was -0.642. In the case of “HMGMKTSQKLARQREIVRLIRAQTIRTQAELADALRERAFPVSQPTLSKDIAELGLIKVPLPDSGYRYQLP”, the “soluble fraction (log2)” value was -0.105. For “HMGMNKEHFIIELKIYLKALNPKDQAIILAKYKALFDARVAEGETEEQVAKSLGKPRVIAEEILKEQGIE”, the “soluble fraction (log2)” value was ≥ 0.43. In the case of “HMGMSMNEFLNNRLEQLAVEAVDKSSLGEEIFFYAEPATINLFKDAVDEDEYKVVFPVLKSIIEVEQKLSR”, the “soluble fraction (log2)” value was -1.69. In the case of “HMGMTAPIPGVVLKVSVLPGQKVERGDELLTIEAMKMFNVMRSPSSGTIATVHIKDGDRVVQGQPLVTFA”, the “soluble fraction (log2)” value was 0.113. With “HMGMTTSILDDVIGMGPKRKKALLKAFGSFGALRNATLEEIKQTHTVPEQVAEDVYAVLVQYNSKSE” the “soluble fraction (log2)” value was -0.171. For “HMGMVKLNEEYLEKVKKHRKELHITQLQISKKLGWSLSRYQRFESGFYKEIEDDAPKKIKEEFGIDYSLL”, the “soluble fraction (log2)” value was -0.231. With “HMGNGALLTLTVKERQVIQLVAEGKSNKQIARDLNVTPETIKSHMKNIFAKLKVDNRAQAAVMVQQ” the “soluble fraction (log2)” value was 0.0874. With “HMGNGDTNERIATLMQILAKQESIINQYGLENPVVSPQMYVRTLKKVVELSGFKDASSYFADIPDGWKA” the “soluble fraction (log2)” value was 0.0699.
